# Measured values reported in article PMC8915838.
# Legend:
# [1] = target: leukotriene A4 hydrolase (LTA4H) (UniProt P09960); test: SPR
# [2] = target: leukotriene A4 hydrolase (LTA4H) (UniProt P09960); test: enzyme inhibition
# plasmin = test: enzyme inhibition
# trypsin = test: enzyme inhibition
substance,measurement,setting,value
"MTX, immunosuppressant protein from the submandibular salivary glands of the bat Myotis pilosus (natural protein)",Kd,[1],0.45 nM
same,Ki,[2],1230 nM
same,Ki,plasmin,80 nM
same,Ki,trypsin,67.5 nM
